Test results: the supplement of paper PMC7877785
± gives the uncertainty stated by the source.

Assay: self-splicing fitness, log relative to wild type (ln ratio); higher = more splicing; Tetrahymena group I intron in knt gene, E. coli kanamycin selection, DiMSum; sequences stand for … in CUCUCU…GGAGGGAAAAGUUAUCAGGCAUGCACCUGGUAGCUAGUCUUUAAACCAAUAGAUUGCAUCGGUUUAAAAGGCAAGACCGUCAAAUUGCGGGAAAGGGGUCAACAGCCGUUCAGUACCAAGUCUCAGGGGAAACUUUGAGAUGGCCUUGCAAAGGGUAUGGUAAUAAGCUGACGGACAUGGUCCUAACCACGCAGCCAAGUCCUAAGUCAACAGAUCUUCUGUUGAUAUGGAUGCAGUUCACAGACUAAAUGUCGGUCGGGGAAGAUGUAUUCUUCUCAUAAGAUAUAGUCGGACCUCUCCUUAAUGGGAGCUAGCGGAUGAAGUGAUGCAACACUGGAGCCGCUGGGAACUAAUUUGUAUGCGAAAGUAUAUUGAUUAGUUUUGGAGUACUCGUGGUCG
Summary of the method: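 DiMSum derived fitness as the error-weighted combination of fold changes across replicates, kanamycin versus no kanamycin, normalised to wild type. E. coli BL21(DE3) held the library, which randomised all eight P1ex-region intron nucleotides within the knt kanamycin-resistance gene on pET-22b(+). Six replicate transformations grew overnight at 37°C or 30°C on LB agar with or without 25 μg/mL kanamycin, also containing 100 μg/mL carbenicillin, 50 μM IPTG and 0.2% rhamnose, and pooled colonies were amplicon-sequenced on an Illumina HiSeq 2500.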

| Sequence | self-splicing fitness (ln) (30 °C) | self-splicing fitness (ln) (37 °C) |
| --- | --- | --- |
| UGUAAGCAAUAUUACGCAGG | -3.22 ± 0.16 | -3.06 ± 0.24 |
| UGUAAGCAAUAUUACGCAUA | -0.865 ± 0.18 | -1.69 ± 0.17 |
| UGUAAGCAAUAUUACGCCGG | -1.46 ± 0.12 | -0.237 ± 0.13 |
| UGUAAGCAAUAUUACGCGCU | -0.925 ± 0.078 | -0.315 ± 0.11 |
| UGUAAGCAAUAUUACGCUUA | -1.79 ± 0.15 | -2.39 ± 0.19 |
| UGUAAGCAAUAUUACGCUUG | -4.2 ± 0.42 | -1.99 ± 0.21 |
| UGUAAGCAAUAUUACGGAGA | -2.88 ± 0.32 | -1.97 ± 0.42 |
| UGUAAGCAAUAUUACGGGUG | -0.874 ± 0.18 | -0.00955 ± 0.19 |
| UGUAAGCAAUAUUACGGUAU | – | -1.68 ± 0.21 |
| UGUAAGCAAUAUUACGGUCG | 0.275 ± 0.081 | -0.0342 ± 0.098 |
| UGUAAGCAAUAUUACGGUGC | -3.82 ± 0.35 | -2.13 ± 0.26 |
| UGUAAGCAAUAUUACGGUGU | -3.61 ± 0.22 | -0.0793 ± 0.17 |
| UGUAAGCAAUAUUACGUAAA | -2.36 ± 0.19 | -1.02 ± 0.16 |
| UGUAAGCAAUAUUACGUCCU | -0.564 ± 0.074 | 0.215 ± 0.079 |
| UGUAAGCAAUAUUACGUCUG | -0.606 ± 0.07 | 0.32 ± 0.093 |
| UGUCAGCAAUAUUACGAAAA | -1.06 ± 0.095 | -0.75 ± 0.096 |
| UGUCAGCAAUAUUACGAACA | -0.481 ± 0.068 | 0.521 ± 0.086 |
| UGUCAGCAAUAUUACGAACC | -0.269 ± 0.27 | -0.024 ± 0.26 |
| UGUCAGCAAUAUUACGAACU | -0.744 ± 0.086 | -0.0942 ± 0.086 |
| UGUCAGCAAUAUUACGAGCG | 0.308 ± 0.083 | 0.59 ± 0.11 |
| UGUCAGCAAUAUUACGAGGC | -1.97 ± 0.26 | -3.1 ± 0.32 |
| UGUCAGCAAUAUUACGAGUC | -3.49 ± 0.26 | -2.78 ± 0.25 |
| UGUCAGCAAUAUUACGAUUA | -0.198 ± 0.061 | 0.519 ± 0.088 |
| UGUCAGCAAUAUUACGCAGC | -3.7 ± 0.32 | -0.622 ± 0.24 |
| UGUCAGCAAUAUUACGCCCC | -0.691 ± 0.29 | 0.0501 ± 0.3 |
| UGUCAGCAAUAUUACGCCCG | -0.222 ± 0.15 | -0.125 ± 0.21 |

| Sequence | self-splicing fitness (ln) (30 °C) | self-splicing fitness (ln) (37 °C) |
| --- | --- | --- |
| UGUCAGCAAUAUUACGCUCC | -0.598 ± 0.29 | -1.2 ± 0.34 |
| UGUCAGCAAUAUUACGCUGC | -3.54 ± 0.43 | -0.934 ± 0.25 |
| UGUCAGCAAUAUUACGGCGG | -0.922 ± 0.084 | 0.0377 ± 0.12 |
| UGUCAGCAAUAUUACGUCCU | -0.0922 ± 0.06 | -0.325 ± 0.073 |
| UGUCAGCAAUAUUACGUCUU | -0.331 ± 0.071 | -0.0647 ± 0.09 |
| UGUCAGCAAUAUUACGUGCC | -0.825 ± 0.12 | -0.182 ± 0.14 |
| UGUCAGCAAUAUUACGUGCU | -3.51 ± 0.25 | -2.23 ± 0.24 |
| UGUCAGCAAUAUUACGUGGU | -4.15 ± 0.18 | -1.96 ± 0.11 |
| UGUCAGCAAUAUUACGUGUA | -0.648 ± 0.056 | 0.127 ± 0.074 |
| UGUCAGCAAUAUUACGUUUC | – | -2.07 ± 0.28 |
| UGUGAGCAAUAUUACGAACU | -0.733 ± 0.14 | 0.203 ± 0.21 |
| UGUGAGCAAUAUUACGACGG | -1.3 ± 0.34 | -0.759 ± 0.28 |
| UGUGAGCAAUAUUACGAGCA | -0.913 ± 0.16 | -0.797 ± 0.21 |
| UGUGAGCAAUAUUACGAUCU | -1.57 ± 0.15 | -0.175 ± 0.14 |
| UGUGAGCAAUAUUACGCCUG | -1.48 ± 0.16 | -1.05 ± 0.16 |
| UGUGAGCAAUAUUACGCGAU | -3.88 ± 0.33 | -3.57 ± 0.37 |
| UGUGAGCAAUAUUACGCGCG | -1.13 ± 0.43 | – |
| UGUGAGCAAUAUUACGCGGA | -2.4 ± 0.2 | -1.31 ± 0.21 |
| UGUGAGCAAUAUUACGGACA | -1.44 ± 0.13 | 0.089 ± 0.13 |
| UGUGAGCAAUAUUACGGCCA | -0.0854 ± 0.18 | 0.465 ± 0.34 |
| UGUGAGCAAUAUUACGGCGC | -1.23 ± 0.33 | – |
| UGUGAGCAAUAUUACGGGAA | – | -2.51 ± 0.33 |
| UGUGAGCAAUAUUACGGGGA | -2.36 ± 0.29 | -1.65 ± 0.33 |
| UGUGAGCAAUAUUACGUAGC | -4.22 ± 0.42 | -1.65 ± 0.29 |
| UGUGAGCAAUAUUACGUUCU | -3.79 ± 0.33 | -3.12 ± 0.4 |
| UGUUAGCAAUAUUACGAAGA | – | -1.54 ± 0.4 |

| Sequence | self-splicing fitness (ln) (30 °C) | self-splicing fitness (ln) (37 °C) |
| --- | --- | --- |
| UGUUAGCAAUAUUACGACGG | -0.352 ± 0.16 | -0.218 ± 0.18 |
| UGUUAGCAAUAUUACGACUA | 0.407 ± 0.22 | -0.164 ± 0.19 |
| UGUUAGCAAUAUUACGAGGG | -3.43 ± 0.26 | -1.84 ± 0.23 |
| UGUUAGCAAUAUUACGAUUU | -0.79 ± 0.11 | -1.55 ± 0.14 |
| UGUUAGCAAUAUUACGCAGA | -0.741 ± 0.46 | -0.752 ± 0.3 |
| UGUUAGCAAUAUUACGCAUU | -2.6 ± 0.27 | -1.47 ± 0.2 |
| UGUUAGCAAUAUUACGCCAA | -1.32 ± 0.19 | -1.4 ± 0.23 |
| UGUUAGCAAUAUUACGCCUU | -0.953 ± 0.37 | -1.4 ± 0.33 |
| UGUUAGCAAUAUUACGCGGG | -2.74 ± 0.29 | -1.57 ± 0.26 |
| UGUUAGCAAUAUUACGCGUU | -1.38 ± 0.1 | -1.01 ± 0.11 |
| UGUUAGCAAUAUUACGCUAG | -1.94 ± 0.5 | -1.4 ± 0.47 |
| UGUUAGCAAUAUUACGCUGA | -2.26 ± 0.44 | – |
| UGUUAGCAAUAUUACGGCCA | 0.385 ± 0.17 | 0.166 ± 0.14 |
| UGUUAGCAAUAUUACGGUAA | -1.05 ± 0.1 | -0.0801 ± 0.097 |
| UGUUAGCAAUAUUACGGUUA | -0.39 ± 0.086 | 0.504 ± 0.088 |
| UGUUAGCAAUAUUACGUAAC | -1.65 ± 0.46 | -1.55 ± 0.5 |
| UGUUAGCAAUAUUACGUACG | -0.624 ± 0.17 | 0.229 ± 0.22 |
| UGUUAGCAAUAUUACGUGCG | -1.23 ± 0.11 | -0.303 ± 0.14 |
| UGUUAGCAAUAUUACGUGUA | -2.88 ± 0.16 | -0.349 ± 0.1 |
| UGUUAGCAAUAUUACGUGUU | -3.3 ± 0.29 | -3.27 ± 0.47 |
| UGUUAGCAAUAUUACGUUGU | -3.71 ± 0.28 | -2.3 ± 0.17 |
| UUAAAGCAAUAUUACGACAG | 0.285 ± 0.1 | 0.0597 ± 0.14 |
| UUAAAGCAAUAUUACGAGGC | -3.94 ± 0.37 | -2.36 ± 0.29 |
| UUAAAGCAAUAUUACGAGGG | -2.1 ± 0.17 | -1.12 ± 0.26 |
| UUAAAGCAAUAUUACGAUAU | -1.05 ± 0.11 | -0.358 ± 0.13 |
| UUAAAGCAAUAUUACGAUCU | -0.857 ± 0.065 | -0.22 ± 0.088 |
